Reference: patent US20260216242A1 (ALMAC DISCOVERY, published 2026)

T1: human ALPI on CHO cells (human, UniProt P09923 20-503)
T1 construct: whole, on cells; also called CHO-ALPI
T1 sequence (looked up): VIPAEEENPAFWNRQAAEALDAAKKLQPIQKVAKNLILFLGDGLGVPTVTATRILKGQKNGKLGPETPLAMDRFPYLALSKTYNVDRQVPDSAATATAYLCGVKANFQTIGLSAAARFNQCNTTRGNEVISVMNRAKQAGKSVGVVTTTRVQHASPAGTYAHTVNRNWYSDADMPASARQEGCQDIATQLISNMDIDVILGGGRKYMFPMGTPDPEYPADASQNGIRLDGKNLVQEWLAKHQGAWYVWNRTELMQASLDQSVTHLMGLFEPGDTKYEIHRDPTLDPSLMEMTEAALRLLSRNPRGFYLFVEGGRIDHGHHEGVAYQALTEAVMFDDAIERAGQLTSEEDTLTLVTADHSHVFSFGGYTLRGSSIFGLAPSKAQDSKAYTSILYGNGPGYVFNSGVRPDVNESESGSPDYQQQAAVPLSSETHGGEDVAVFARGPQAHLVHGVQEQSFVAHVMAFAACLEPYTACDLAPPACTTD

T2: human ALPL on CHO cells (human, UniProt P05186 18-501)
T2 construct: whole, on cells; also called CHO-ALPL
T2 sequence (looked up): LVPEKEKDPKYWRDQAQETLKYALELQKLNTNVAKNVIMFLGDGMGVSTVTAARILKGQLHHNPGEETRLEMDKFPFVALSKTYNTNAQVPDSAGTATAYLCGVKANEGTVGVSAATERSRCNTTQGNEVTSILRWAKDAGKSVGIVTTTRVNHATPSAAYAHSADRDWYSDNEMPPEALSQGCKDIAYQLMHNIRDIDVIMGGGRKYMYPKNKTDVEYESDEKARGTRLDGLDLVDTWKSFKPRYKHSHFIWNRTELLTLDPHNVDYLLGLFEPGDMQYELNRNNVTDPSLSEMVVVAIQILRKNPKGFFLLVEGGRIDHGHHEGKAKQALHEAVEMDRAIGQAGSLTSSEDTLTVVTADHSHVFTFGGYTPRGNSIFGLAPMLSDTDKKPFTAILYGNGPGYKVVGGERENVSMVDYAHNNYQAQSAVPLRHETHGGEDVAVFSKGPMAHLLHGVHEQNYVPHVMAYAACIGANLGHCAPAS


What was measured:
human ALPI on CHO cells = biological target: T1, human ALPI on CHO cells; assay: flow cytometry, CHO cells stably expressing human ALPI; PDC detected with FITC anti-human Ab
Description: (§1) Biparatopic VHH-hFc drug conjugates were assessed for human ALPP, ALPPL2, ALPI and ALPL cell-surface binding by flow cytometry. Binders were screened on CHO cells stably expressing human ALPP, ALPPL2, ALPI or ALPL.
(§2) Cell surface binding of test agents to hALPP isoforms was characterized in four CHO-ALPP isoform transfectant cell lines (CHO-ALPP, CHO-ALPPL2, CHO-ALPI and CHO-ALPL) and the resulting KDapp values determined. Adherent cells were detached from tissue culture flasks by incubating with 0.1% EDTA/PBS solution at 37° C. for […] or until cells detached easily. Cells were re-suspended in ice-cold PBS/2% FCS in 15 ml tubes and centrifuged at 1700 rpm for 5 mins at 4° C. Supernatant was removed and the cell pellet re-suspended in PBS/2% FCS. […] Cells were incubated with 100 μl of test agents at a range of concentrations, plus controls for 1 hr on ice. The sample plate was centrifuged at 1700 rpm for 5 mins at 4° C. The supernatant was removed, and a wash performed by re-suspending the cell pellets in 0.25 mL of ice-cold PBS/2% FCS using a multichannel pipette. Samples were again centrifuged at 1700 rpm for 5 min at 4° C. Supernatant was removed and two further washes performed as described. After the final wash and centrifugation step, excess liquid was removed by blotting the plate on tissue paper. Binding of VHH-hFc agents was determined by adding 100 μl of Fitc-anti-human Ab (ThermoFisher) and incubating for 30 mins on ice in the dark. Wash steps were performed as described previously. All cell pellets were finally re-suspended in 0.28 ml of ice-cold PBS/2% FCS and left on ice in the dark prior to analysis on a Merck-Millipore Guava EasyCyte HT or Thermo Fisher Attune N×T flow cytometer.

human ALPL on CHO cells = biological target: T2, human ALPL on CHO cells; assay: flow cytometry, CHO cells stably expressing human ALPL; PDC detected with FITC anti-human Ab
Description: as §1, §2

Row | Binder | binding result (human ALPI on CHO cells) | binding result (human ALPL on CHO cells)
1 | D10-E06 hFc-vcPAB-MMAE [G4S]3 (Fc fusion, DAR 4, MC-vc-PAB-MMAE on Cys 239 and Cys 442 (EU numbering), Biparatopic drug conjugate, DAR 4; also called #634) chain 1: QVQLVESGGGLVQPGGSLRLSCAASGSIFSVNTMGWYRQAPGKQRDLVAVATSGGTIHYADSVKGRFTISRDNAKNTVYLQMNSLKPEDTAVYYCNLVVPYGMIAGDHDYWGQGTKVTVSSGGGGSGGGGSGGGGSEPKSSDKTHTCPPCPAPELLGGPCVFLFPPKPKDTLMISRTPEVTCVVVDVSHEDPEVKFNWYVDGVEVHNAKTKPREEQYNSTYRVVSVLTVLHQDWLNGKEYKCKVSNKALPAPIEKTISKAKGQPREPQVYTLPPSRDELTKNQVSLYCLVKGFYPSDIAVEWESNGQPENNYKTTPPVLDSDGSFFLYSKLTVDKSRWQQGNVFSCSVMHEALHNHYTQKSLCLSPGK chain 2: QVHLVESGGGLVQAGGSLRLSCAASRRSFSEYAMGWFRQAPGKEREFVAAIGWSGVIEYADSVKGRFTISRDNAKDTVYLQMNSLKPEDTAVYYCAAGLGIRVVSQTPAYWGQGTQVTVSSGGGGSGGGGSGGGGSEPKSSDKTHTCPPCPAPELLGGPCVFLFPPKPKDTLMISRTPEVTCVVVDVSHEDPEVKFNWYVDGVEVHNAKTKPREEQYNSTYRVVSVLTVLHQDWLNGKEYKCKVSNKALPAPIEKTISKAKGQPREPQVYTLPPSRDELTKNQVSLTCLVKGFYPSDIAVEWESNGQPENNYKTTPPVLDSDGSFFLTSKLTVDKSRWQQGNVFSCSVMHEALHNHYTQKSLCLSPGK | no binding (tested: 350 nM) | no binding (tested: 350 nM)
2 | D10-E10 hFc-vcPAB-MMAE [G4S]3 (Fc fusion, DAR 4, MC-vc-PAB-MMAE on Cys 239 and Cys 442 (EU numbering), Biparatopic drug conjugate, DAR 4) chain 1: QVQLVESGGGLVQPGGSLRLSCAASGSIFSVNTMGWYRQAPGKQRDLVAVATSGGTIHYADSVKGRFTISRDNAKNTVYLQMNSLKPEDTAVYYCNLVVPYGMIAGDHDYWGQGTKVTVSSGGGGSGGGGSGGGGSEPKSSDKTHTCPPCPAPELLGGPCVFLFPPKPKDTLMISRTPEVTCVVVDVSHEDPEVKFNWYVDGVEVHNAKTKPREEQYNSTYRVVSVLTVLHQDWLNGKEYKCKVSNKALPAPIEKTISKAKGQPREPQVYTLPPSRDELTKNQVSLYCLVKGFYPSDIAVEWESNGQPENNYKTTPPVLDSDGSFFLYSKLTVDKSRWQQGNVFSCSVMHEALHNHYTQKSLCLSPGK chain 2: QVQLVESGGGLVQAGGSLRLSCAVSGRALSDYNIGWFRQAPGKEREFVARKTWDGSSTRYDDSVKGRFTVSIEDAKNTAYLQMSSLKTEDTAVYYCAAGRYSRARGWEYDYWGQGTQVTVSSGGGGSGGGGSGGGGSEPKSSDKTHTCPPCPAPELLGGPCVFLFPPKPKDTLMISRTPEVTCVVVDVSHEDPEVKFNWYVDGVEVHNAKTKPREEQYNSTYRVVSVLTVLHQDWLNGKEYKCKVSNKALPAPIEKTISKAKGQPREPQVYTLPPSRDELTKNQVSLTCLVKGFYPSDIAVEWESNGQPENNYKTTPPVLDSDGSFFLTSKLTVDKSRWQQGNVFSCSVMHEALHNHYTQKSLCLSPGK | no binding (tested: 350 nM) | no binding (tested: 350 nM)
3 | D10-F05 hFc-vcPAB-MMAE [G4S]3 (Fc fusion, DAR 4, MC-vc-PAB-MMAE on Cys 239 and Cys 442 (EU numbering), Biparatopic drug conjugate, DAR 4; also called #637) chain 1: QVQLVESGGGLVQPGGSLRLSCAASGSIFSVNTMGWYRQAPGKQRDLVAVATSGGTIHYADSVKGRFTISRDNAKNTVYLQMNSLKPEDTAVYYCNLVVPYGMIAGDHDYWGQGTKVTVSSGGGGSGGGGSGGGGSEPKSSDKTHTCPPCPAPELLGGPCVFLFPPKPKDTLMISRTPEVTCVVVDVSHEDPEVKFNWYVDGVEVHNAKTKPREEQYNSTYRVVSVLTVLHQDWLNGKEYKCKVSNKALPAPIEKTISKAKGQPREPQVYTLPPSRDELTKNQVSLYCLVKGFYPSDIAVEWESNGQPENNYKTTPPVLDSDGSFFLYSKLTVDKSRWQQGNVFSCSVMHEALHNHYTQKSLCLSPGK chain 2: QVQLVESGGGLVQAGGSLRLSCAASGRAFGDYNIGWFRQAPGKEREFVARRTWDGSSTRYDDSVKGRFTVSIDNAKNTAYLQMNSLKTEDTAVYYCAAGRYSRVRGWEYDYWGQGTQVTVSSGGGGSGGGGSGGGGSEPKSSDKTHTCPPCPAPELLGGPCVFLFPPKPKDTLMISRTPEVTCVVVDVSHEDPEVKFNWYVDGVEVHNAKTKPREEQYNSTYRVVSVLTVLHQDWLNGKEYKCKVSNKALPAPIEKTISKAKGQPREPQVYTLPPSRDELTKNQVSLTCLVKGFYPSDIAVEWESNGQPENNYKTTPPVLDSDGSFFLTSKLTVDKSRWQQGNVFSCSVMHEALHNHYTQKSLCLSPGK | no binding (tested: 350 nM) | no binding (tested: 350 nM)
4 | D10-E06-hFc-vcPAB-MMAE [G4S]1 (Fc fusion, DAR 4, MC-vc-PAB-MMAE on Cys 239 and Cys 442 (EU numbering), Biparatopic drug conjugate, DAR 4) chain 1: QVQLVESGGGLVQPGGSLRLSCAASGSIFSVNTMGWYRQAPGKQRDLVAVATSGGTIHYADSVKGRFTISRDNAKNTVYLQMNSLKPEDTAVYYCNLVVPYGMIAGDHDYWGQGTKVTVSSGGGGSEPKSSDKTHTCPPCPAPELLGGPCVFLFPPKPKDTLMISRTPEVTCVVVDVSHEDPEVKFNWYVDGVEVHNAKTKPREEQYNSTYRVVSVLTVLHQDWLNGKEYKCKVSNKALPAPIEKTISKAKGQPREPQVYTLPPSRDELTKNQVSLYCLVKGFYPSDIAVEWESNGQPENNYKTTPPVLDSDGSFFLYSKLTVDKSRWQQGNVFSCSVMHEALHNHYTQKSLCLSPGK chain 2: QVHLVESGGGLVQAGGSLRLSCAASRRSFSEYAMGWFRQAPGKEREFVAAIGWSGVIEYADSVKGRFTISRDNAKDTVYLQMNSLKPEDTAVYYCAAGLGIRVVSQTPAYWGQGTQVTVSSGGGGSEPKSSDKTHTCPPCPAPELLGGPCVFLFPPKPKDTLMISRTPEVTCVVVDVSHEDPEVKFNWYVDGVEVHNAKTKPREEQYNSTYRVVSVLTVLHQDWLNGKEYKCKVSNKALPAPIEKTISKAKGQPREPQVYTLPPSRDELTKNQVSLTCLVKGFYPSDIAVEWESNGQPENNYKTTPPVLDSDGSFFLTSKLTVDKSRWQQGNVFSCSVMHEALHNHYTQKSLCLSPGK | no binding (tested: 350 nM) | no binding (tested: 350 nM)
5 | D10-E10-hFc-vcPAB-MMAE [G4S]1 (Fc fusion, DAR 4, MC-vc-PAB-MMAE on Cys 239 and Cys 442 (EU numbering), Biparatopic drug conjugate, DAR 4) chain 1: QVQLVESGGGLVQPGGSLRLSCAASGSIFSVNTMGWYRQAPGKQRDLVAVATSGGTIHYADSVKGRFTISRDNAKNTVYLQMNSLKPEDTAVYYCNLVVPYGMIAGDHDYWGQGTKVTVSSGGGGSEPKSSDKTHTCPPCPAPELLGGPCVFLFPPKPKDTLMISRTPEVTCVVVDVSHEDPEVKFNWYVDGVEVHNAKTKPREEQYNSTYRVVSVLTVLHQDWLNGKEYKCKVSNKALPAPIEKTISKAKGQPREPQVYTLPPSRDELTKNQVSLYCLVKGFYPSDIAVEWESNGQPENNYKTTPPVLDSDGSFFLYSKLTVDKSRWQQGNVFSCSVMHEALHNHYTQKSLCLSPGK chain 2: QVQLVESGGGLVQAGGSLRLSCAVSGRALSDYNIGWFRQAPGKEREFVARKTWDGSSTRYDDSVKGRFTVSIEDAKNTAYLQMSSLKTEDTAVYYCAAGRYSRARGWEYDYWGQGTQVTVSSGGGGSEPKSSDKTHTCPPCPAPELLGGPCVFLFPPKPKDTLMISRTPEVTCVVVDVSHEDPEVKFNWYVDGVEVHNAKTKPREEQYNSTYRVVSVLTVLHQDWLNGKEYKCKVSNKALPAPIEKTISKAKGQPREPQVYTLPPSRDELTKNQVSLTCLVKGFYPSDIAVEWESNGQPENNYKTTPPVLDSDGSFFLTSKLTVDKSRWQQGNVFSCSVMHEALHNHYTQKSLCLSPGK | no binding (tested: 350 nM) | no binding (tested: 350 nM)
